Reference: doi:10.1101/2021.10.29.466502 (bioRxiv, 2021)

Experiments:
[1] = target: thrombopoietin receptor MPL on Ba/F3-HuMpl cells (human) (UniProt P40238)
[2] = target: T1, thrombopoietin receptor MPL on Ba/F3-HuMpl cells (human, UniProt P40238 26-635, N-glycans (consensus sites N117, N178, N298, N358)); test: cell-based or functional assay
T1 sequence: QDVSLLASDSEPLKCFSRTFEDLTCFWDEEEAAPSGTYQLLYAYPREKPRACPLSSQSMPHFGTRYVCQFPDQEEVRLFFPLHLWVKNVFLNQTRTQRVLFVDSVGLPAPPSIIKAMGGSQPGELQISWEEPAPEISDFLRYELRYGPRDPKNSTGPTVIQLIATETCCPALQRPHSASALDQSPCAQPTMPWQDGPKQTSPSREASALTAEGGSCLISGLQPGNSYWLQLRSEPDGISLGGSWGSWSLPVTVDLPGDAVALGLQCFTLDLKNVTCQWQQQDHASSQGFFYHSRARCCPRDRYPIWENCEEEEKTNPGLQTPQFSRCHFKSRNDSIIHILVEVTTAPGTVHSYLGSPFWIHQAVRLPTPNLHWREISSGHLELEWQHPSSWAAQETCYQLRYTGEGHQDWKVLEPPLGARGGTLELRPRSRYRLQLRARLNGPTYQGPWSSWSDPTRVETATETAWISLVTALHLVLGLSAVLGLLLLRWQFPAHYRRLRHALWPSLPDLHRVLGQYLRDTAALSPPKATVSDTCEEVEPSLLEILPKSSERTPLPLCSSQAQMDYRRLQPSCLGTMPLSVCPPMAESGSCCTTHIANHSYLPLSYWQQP

Row | Molecule | proliferation of Ba/F3-HuMpl cells, EC50 [1] [µg/mL] | proliferation of Ba/F3-HuMpl cells, EC50 [2] [µg/mL]
1 | PA-IIL (from UniProt Q9HYN5 1-115) (natural protein) | 17.5 | 
2 | N-terminal His-tagged recombinant ThC (rThC) (natural protein) TACTTGPQTISFPAGLIVSLNASVQSSRNESVEVKDSNGNTVSRGSGSSSSGGTFTVINMEPPTFISDGNDYTVELSPQATPGILQTESSRVDNGRLIWQNYAFGANDGGCIVGDRDFNDVFVLITGLVRG |  | 0.26
